Results from publication PMC8169611.

Molecular target: mouse proIGF2 (insulin-like growth factor 2 pro-hormone) (mouse)
Test: fluorescence polarisation

Kd: 2980 nM
Substance: mouse proIGF2 (insulin-like growth factor 2 pro-hormone) (natural protein)
